Data as given in patent US20240043859A1, “HERBICIDE-RESISTANT PROTEIN, AND GENE AND USE THEREOF” (QINGDAO KINGAGROOT CHEMICAL COMPOUND CO., LTD., priority 2020, published 2024).
“Also recorded” adds a separate entry of the source.

Assays:
[1] = tested on: Arabidopsis thaliana; test: Herbicide resistance of transgenic Arabidopsis thaliana seedlings on plate medium (root growth); format: in vivo; settings: Arabidopsis overexpressing the gene
Description: Expression in Arabidopsis thaliana was regulated by its AtUbi10 Arabidopsis thaliana ubiquitin promoter and the MAS (mannopine synthase) terminator. Hygromycin resistance gene (HygR=hpt) served as the selection marker.
Preparation of Agrobacterium infection solution: An activated Agrobacterium (GV3101) monoclone was picked and inoculated in 30 ml YEP liquid medium [yeast powder 10 g/L, tryptone 10 g/L, NaCl 5 g/L, 25 mg/L Rifampicin and 50 mg/L Kanamycin], shaking-cultured at 200 rmp/min, 28° C. overnight until the OD600 was about 1.0-1.5, then centrifuged at 6000 rmp/min for 10 min to collect the bacteria, and the supernatant was discarded. Arabidopsis thaliana infection solution (sucrose 50 g/L, Silwet L-77 300 μL/L, no need to adjust pH) was used to resuspend the cells to OD600=0.8 for later use.
Genetic transformation of Arabidopsis thaliana by flower dipping: Before transformation of Arabidopsis thaliana plants, attentions were paid to whether the plants were growing well, the inflorescences were abundant, and no stress response occurred. The first transformation was performed when plants were about 20 cm high. Plants could be properly watered if the soil was dry. The grown siliques were cut off with scissors the day before transformation. The inflorescences of the plants to be transformed were soaked in the above-mentioned Agrobacterium solution for 30 seconds to 1 minute, which was stirred gently during the period. And a layer of liquid film should appear on the infiltrated plant. The transformed plants were cultured in a dark environment for 24 hours, and then taken out and grown in a normal light environment. A second transformation could be performed in the same way a week later.
Seeds were treated with disinfectant for 5 min, washed with sterile water for 5 times and then one part was spread on MS transgenic screening medium (containing 30 μg/mL hygromycin, 100 μg/mL carbenicillin) to screen transgenic seedlings, and the other part was spread on MS medicated medium [containing 250 μg/mL Cefotaxime sodium and 0.3 μM 2,4-D] to screen herbicide-resistant seedlings at mean time. The petri dish spread with seeds was placed at 4° C. for vernalization for 3 days, and taken out to a illumination incubator for cultivation (temperature of 22° C., 16 hours of light, 8 hours of darkness, light intensity of 100-150 μmol/m^2/s, humidity of 75%). After one week, it was observed that the roots of the wild-type control seedlings were not elongated and their growth was inhibited, while the transgenic seedlings had normal root growth, showing drug resistance. The transgenic positive seedlings and herbicide-resistant seedlings were photographed and transplanted into small pots filled with soil for cultivation.
The transgenic lines with the nine vectors, pQY2309, pQY2310, pQY2311, pQY2312, pQY2313, pQY2314, pQY2315, pQY2316 and pQY2317, overexpressing AAD gene in the T2 generation were further tested on plate medium for their resistance to 2,4-D, 2,4-DB sodium and MCPA herbicide. Two events were tested for each transformant.

[2] = format: cell-based, Escherichia coli
Description: To transform the plasmids to be tested, an AAD12-expressing plasmid and a blank control plasmid pET15b were respectively transformed into the protein expression E. coli BL21(DE3) strains. A monoclone was selected and inoculated in a 10 ml centrifuge tube with 3 ml LB medium, and cultivated at 37° C., 200 rpm for 6-8 hours. […] The temperature was switched to 28° C. and the cultivation continued overnight. In the next morning, 200 μL of each bacteria solution was taken and centrifuged to precipitate thallus, 180 μL of the supernatant was taken and added in a 96-well plate, and 20 μL of borate buffer of pH 10 was added. Then the mixture was added with 2 μL of 8% potassium ferricyanide and mixed well, followed by adding 2 μL of 2% 4-aminoantipyrine, and placed at room temperature for 5 min to observe the color and detect the A510 value. […]

[3] = Chromogenic reaction of degrading herbicides in bacteria: 2,4-D; format: cell-based, Escherichia coli; settings: recombinant E. coli expressing the gene, 2,4-D added to the medium, red = phenols
Description: To transform the plasmids to be tested, an AAD12-expressing plasmid and a blank control plasmid pET15b were respectively transformed into the protein expression E. coli BL21(DE3) strains. A monoclone was selected and inoculated in a 10 ml centrifuge tube with 3 ml LB medium, and cultivated at 37° C., 200 rpm for 6-8 hours. The culture medium was added with 0.1 mM IPTG and 2 mM α-ketoglutaric acid, and then 0.5 mM 2,4-D. The temperature was switched to 28° C. and the cultivation continued overnight. In the next morning, 200 μL of each bacteria solution was taken and centrifuged to precipitate thallus, 180 μL of the supernatant was taken and added in a 96-well plate, and 20 μL of borate buffer of pH 10 was added. Then the mixture was added with 2 μL of 8% potassium ferricyanide and mixed well, followed by adding 2 μL of 2% 4-aminoantipyrine, and placed at room temperature for 5 min to observe the color and detect the A510 value.
The bacteria solution also appeared red when 2,4-D was directly added into the medium of AAD12-expressing bacteria, as shown in FIG. 1.
2,4-D was added into these bacteria solutions of AAD gene-expressing recombinant E. coli and cultivation was continued for color development.

Molecule | Resistance of transgenic Arabidopsis thaliana: 2,4-D [1] | Chromogenic reaction of degrading herbicides in bacteria: MCPA [2] | Chromogenic reaction of degrading herbicides in bacteria: 2,4-D [3] | also measured
QYD21: AAD-like enzyme, SEQ ID NO. 41 (protein, Synthetic polypeptide, QYD21, D21) MTTIETKPLTPCFGVEVSGMTLSEVSKGHDFARLRDLFEEHSALLFRAQEISNEEHMALAQLFGPIEDRKADERKPGEAFEVPEVSNVQKDGTTSGEMDLHTLNLKSNFLWHSDSTFLPTPALTNILIGRVVTTEGGATELASTRAAWAAMPEELKSRIRGRGIWHRYSHSRRKISPELAKLPMFNKWPDQHWSAVWPNPVNGREGLYIASHAFKVDGYDEAESQELLDELMAFCTQPEFTYAHQWNVGDVLIWDQRAVLHRGTPWPYEQPRTLSSICVSVTEADGIGSIRMPA | Yes | Yes | Yes | Chromogenic reaction of degrading herbicides in bacteria: 2,4-D ([3]; listed as D21): could degrade 2,4-D; also recorded: capable of degrading 2,4-D
QYD32: AAD-like enzyme, SEQ ID NO. 63 (protein, Synthetic polypeptide, QYD32, D32) MSQMTFEPLSGPTFGARVHGVKLTAMDDAAFRELHDNWLEYGLLIVPEQFLTREEQIAFARRFGDLEFEIAEIGNMRDDGSLRPDDGSDEMMKINRGNMGWHHDSTYMPVQAKGAVFSAEIVPQEGGATGFADMRAAYDELDDAMKARIENLRAHHSLHHSQGKVGHKTKPVKDGKVNAGGTFGGYGLHDGPVSVRPLVKVHPETGRKNLLVGRHAYDIIGMSSEESEKLLQDLVDFACQPPRIYHHQWAPGDAVIWDNRRLMHQATPWPFDQARRMWHSRIAGDPATEAAMAA | Yes | NO | Yes | Chromogenic reaction of degrading herbicides in bacteria: 2,4-D ([3]; listed as D32): red reactions
QYD26: AAD-like enzyme, SEQ ID NO. 51 (protein, Synthetic polypeptide, QYD26, D26) MSEFIYTLPSHNRAASYSHIRVTPTTGAIGADVENLDLTRLSDEGFAELRQALLAHKVIFIRDQALSVADLERVTQHLGEFGREPYVTCMADHPHVVHVVKEASEKAPFVFGGAWHTDWTFQERPPAFTLLYGHDIPPYGGDTCYANLALAYEWLSPGMQALLENLDAVHSPEMAYGVNAKHNALLENMAINYGSDTSADERSHPLVTRHPETGKKVLFINPAYTTGIKGLRTEESRPLLDYLFKLATSEAFTCRMRWRQGTLAIWDNRSTWHMPVADYHGMRREMFRTTVIGEVPSR | Yes | Yes | Yes | Chromogenic reaction of degrading herbicides in bacteria: 2,4-D ([3]; listed as D26): red reactions
QYD62: AAD-like enzyme, SEQ ID NO. 123; 100.00% identical to US20140141044-13793 (for medical field) (protein, Synthetic polypeptide, QYD62, D62) MTIAIRQLHKHFVGEVSGLDLRKPLTADEARDIEAAMDKYAVLVFHDQDITDEQQMAFALNFGQREDARGGTVTKAKDYRLQSGLNDVSNLGKDGKPLAKDSRTHLFNLGNCLWHSDSSFRPIPAKFSLLSARVVNPKGGNTEFADMRAAYDALDDETKTEIEDLVCEHSLMYSRGSLGFTEYTDEEKEMFKPVLQRLVRTHPVHRRKSLYLSSHAGKVVGMSVPEGRLLLRDLNEHATQPEFVYVHKWKLHDLVMWDNRQTMHRVRRYDQSQPRDMRRATVAGTEPTVQQQAAE |  | Yes | Yes | Chromogenic reaction of degrading herbicides in bacteria: 2,4-D ([3]; listed as D62): could degrade 2,4-D; also recorded: capable of degrading 2,4-D
QYD35: AAD-like enzyme, SEQ ID NO. 69 (protein, Synthetic polypeptide, QYD35, D35) MSARPFTVEPLPATFGARITGLDLAALDDATFAALYDAWLEYALLIFPGAGLSTAEQVTFARRFGDMEFDIAPLSNVRKDGSLRADDGTDDVVKVLRGNMGWHADSTYMPVQAKGAVFSAHVVPEEGGETGWADMRAAYDALDDDLRRRIEGLSAHHSLVHSQARLGHAHGTDSEYSGYGFHDEAPLRPLVKVHPETGRRSLLIGRHAYGIPGLEETASERLLDELVDFACRPPRVYHHRWQVGDVVLWDNRCLLHRACPWDMSRPRVMYHSRIAGDPVTEAGLAGQSEQPSASGS |  | NO | Yes | Chromogenic reaction of degrading herbicides in bacteria: 2,4-D ([3]; listed as D35): red reactions
QYD54: AAD-like enzyme, SEQ ID NO. 107 (protein, Synthetic polypeptide, QYD54, D54) MARMFDIAPLDATFGAVVTGVKVTRIDDATWRDLHAAWLEYALLIFPGQFLSRAEQIAFAKRFGPLEFEMAPISNVKADGTIRIEADNDDVVKVLKGNMGWHADSTYMPVQAKGAVFSAEVVPGEGGRTGWADMRAAYDALDAARRVRVESLTAYHSLYYSQAKLGHQPKRGSDYSGYGFHDGPVPRRPLVKVHPETGRKSLLIGRHAHNIPGMDVAESTQFLESLVDFACQPPRIYHHQWTAGDAVVWDNRCLLHRATPWDMTKPRVMWHSRIAGDPVSEASLG |  | Yes | Yes | Chromogenic reaction of degrading herbicides in bacteria: 2,4-D ([3]; listed as D54): could degrade 2,4-D; also recorded: capable of degrading 2,4-D
QYD33: AAD-like enzyme, SEQ ID NO. 65 (protein, Synthetic polypeptide, QYD33, D33) MSEHFDVEPLDASFGARITGLKLTEMSDAAFDALYETWLEHGLLLFPDQHMEPEAQVDVARRFGPLEVKLFAISNLKDDGSVRTSDEDDLVKILKGNMGWHHDSTYMPLQAKGAVFSAHVVPSEGGETGFADMRQAWDALDDDMKRRLEGLTALHSLHYSQMKAGFRRKEKDSEYIGYGLDERPPVRRQMVKVHPETGRKSLLVGRHAFGVSGMSEKESEEFVDGLNEFAGSGDWTYHHKWTPGEVVLWDNRCLMHRACPWDMTKPRVMYHSRIAGDPVSEAEVAA |  | NO | Yes | Chromogenic reaction of degrading herbicides in bacteria: 2,4-D ([3]; listed as D33): red reactions
